Key:
MEC monolayers = test: FITC Transwell permeability assay; format: cell-based, human; conditions: each agent alone
Description: The integrity of these junctions is also important for the regulation of monolayer permeability by controlling the size of intercellular openings. The effect of the AXT107 on EC permeability was further investigated by the transendothelial diffusion of FITC-labeled dextran across MEC monolayers seeded onto permeable Transwell® substrates.
Transwell, twenty-four-well inserts (Corning) were coated with 7.5 μg/cm^2 FN1 for two hours at 37° C., aspirated, and then dried for thirty minutes at room temperature. Wells were then seeded with 7.5×10^4 MECs in 100 μl of EBM-2 media (without phenol red) and allowed to settle for thirty minutes at room temperature. 1 ml of EGM-2 media was then added to the bottom chamber and an additional 200 μl to the top chamber. The plate was incubated for twenty-four hours at 37° C. after which the media was aspirated and an additional 7.5×10^4 MECs were plated in each well as described above. After forty-eight hours at 37° C., the media was aspirated from both chambers and the cells were washed twice in dPBS containing Ca^2+ and Mg^2+, once with EBM-2 media (without phenol red) and serum starved in EBM-2 media applied to both chambers for two hours at 37° C. After this incubation, 100 μM AXT107 or an equivalent amount of DMSO vehicle was added and incubated for an additional ninety minutes. In the top chamber, the cells were then treated with 200 ng/ml Ang2, 100 ng/ml VEGFA, both, or PBS control and in the bottom chamber, the cells were then treated with 25 μg/ml FITC-Dextran (40 kDa MW). AXT107 was also added in both chambers to maintain a concentration of 100 μM. After three hours, 10 μl was removed from the top chamber of each well and mixed with 90 μl of water in a clear bottom, 96-well plate. Fluorescence values for each sample were calculated using a Perkin Elmer plate reader.

Tie2 = test: Western blot of phospho-Tie2 (Y992) in MEC monolayers treated with AXT107 and angiopoietin; format: cell-based, human; conditions: ligand alone, no AXT107
Description: A confluent monolayer of human microvascular endothelial cells (HMEC) was serum starved with EBM-2 overnight. After a 90 min treatment with AXT107 at concentrations of 0, 10, 32, and 100 μM, the cells were treated for 15 min with 1 mM sodium orthovanadate. Next the cells were treated with Angiopoietin-2 (Ang-2) at 200 ng/mL for 15 min. Following cell lysis, the lysates were immunoblotted for pTie2 (Y992), pSTAT3 (Y705), and pAkt (S473).
To investigate the effects of the integrin inhibitor AXT107 on Tie2 signaling, confluent monolayers of microvascular endothelial cells (MECs) on fibronectin-coated dishes were treated with various concentrations of AXT107 followed by exposure to the Tie2 ligands Ang1 or Ang2.
For Ang1/2 signaling investigations, cell culture dishes (10 cm diameter) were coated with 5 μg/ml fibronectin (FN1; Sigma-Aldrich, St. Louis, Mo.) for two hours at 37° C. The FN1 solution was then removed by aspiration and 5×10^6 microvascular endothelial cells (MECs; Lonza, Walkersville, Md.) were plated in EGM-2MV media (Lonza) and cultured for forty-eight hours at 37° C. The cells were then serum starved for sixteen hours in serum-free EGM-2 base media (Lonza). AXT107 (0-100 μM, as indicated) was subsequently added to each culture and incubated for seventy-five minutes at 37° C. The cultures were then treated with 1 mM sodium vanadate (New England Biolabs, Ipswich, Mass.) for fifteen minutes to enhance the phospho-Tie2 signal followed by stimulation with 200 ng/ml angiopoietin (R&D Systems, Minneapolis, Minn.) for an additional fifteen minutes. The cells were then transferred to ice, washed twice with ice cold Dulbecco's phosphate-buffered saline (dPBS) containing Ca^2+ and Mg^2+, and collected by scraping in 500 μl of 1×Blue Loading Buffer (Cell Signaling, Danvers, Mass.). Lysate samples were then sonicated, boiled, and resolved by SDS-PAGE. Specific proteins were identified by Western blot, using the following primary antibodies: Cell Signaling—phospho-Tie2 (Y992) (Cat#: 4221), Tie2 (Cat#: 7403), phospho-Stat3 (Y705) (Cat#: 4113), Stat3 (Cat#: 4904), phospho-Akt (S473) (Cat#: 4058), Akt (Cat#: 9272), phospho-p44/42 MAPK (T202/Y204) (Cat#: 4370), p44/42 MAPK (Cat#: 4695); BD Transduction Laboratories—β1 integrin (Cat#: 610467); Millipore—α5 integrin (Cat#: AB1928) and detected with HRP-conjugated goat anti-rabbit and sheep anti-mouse secondary antibodies (GE healthcare).

Molecule	FITC-dextran diffusion across the monolayer, single treatment (MEC monolayers)	Tie2 phosphorylation by ligand alone (Tie2)
VEGF	appeared to increase permeability (although non-significantly)	
Ang1: Tie2 ligand; binds Tie2 and stimulates phosphorylation and downstream signaling (protein) SNQRRSPENSGRRYNRIQHGQCAYTFILPEHDGNCRESTTDQYNTNALQRDAPHVEPDFSSQKLQHLEHVMENYTQWLQKLENYIVENMKSEMAQIQQNAVQNHTATMLEIGTSLLSQTAEQTRKLTDVETQVLNQTSRLEIQLLENSLSTYKLEKQLLQQTNEILKIHEKNSLLEHKILEMEGKHKEELDTLKEEKENLQGLVTRQTYIIQELEKQLNRATTNNSVLQKQQLELMDTVHNLVNLCTKEGVLLKGGKREEEKPFRDCADVYQAGFNKSGIYTIYINNMPEPKKVFCNMDVNGGGWTVIQHREDGSLDFQRGWKEYKMGFGNPSGEYWLGNEFIFAITSQRQYMLRIELMDWEGNRAYSQYDRFHIGNEKQNYRLYLKGHTGTAGKQSSLILHGADFSTKDADNDNCMCKCALMLTGGWWFDACGPSNLNGMFYTAGQNHGKLNGIKWHYFKGPSYSLRSTTMMIRPLDF		induced phosphorylation
Ang2: Tie2 ligand; endogenous Tie2 antagonist and weak agonist (protein) YNNFRKSMDSIGKKQYQVQHGSCSYTFLLPEMDNCRSSSSPYVSNAVQRDAPLEYDDSVQRLQVLENIMENNTQWLMKLENYIQDNMKKEMVEIQQNAVQNQTAVMIEIGTNLLNQTAEQTRKLTDVEAQVLNQTTRLELQLLEHSLSTNKLEKQILDQTSEINKLQDKNSFLEKKVLAMEDKHIIQLQSIKEEKDQLQVLVSKQNSIIEELEKKIVTATVNNSVLQKQQHDLMETVNNLLTMMSTSNSAKDPTVAKEEQISFRDCAEVFKSGHTTNGIYTLTFPNSTEEIKAYCDMEAGGGGWTIIQRREDGSVDFQRTWKEYKVGFGNPSGEYWLGNEFVSQLTNQQRYVLKIHLKDWEGNEAYSLYEHFYLSSEELNYRIHLKGLTGTAGKISSISQPGNDFSTKDGDNDKCICKCSQMLTGGWWFDACGPSNLNGMYYPQRQNTNKFNGIKWYYWKGSGYSLKATTMMIRPADF	influenced FITC-dextran diffusion across the monolayer	insignificant effects

— patent US20190225670A1, “COMPOUNDS AND METHODS FOR ACTIVATING TIE2 SIGNALING” (ASCLEPIX THERAPEUTICS, LLC, priority 2016, published 2019)
